# Assay results published in US10357539B2, “Use of peptides that block metadherin-SND1 interaction as treatment for cancer” (THE TRUSTEES OF PRINCETON UNIVERSITY, priority 2014, dated 2019).
# T1: SND1 (Homo sapiens, UniProt Q7KZF4)
# T1 construct: Full-length HA-tagged SND1 was co-expressed with full-length Myc-tagged wild-type (WT) or mutant MTDH in HEK293T cells; expressed in transfected cells; host or cells: HEK293T
# T1 sequence (Q7KZF4 1-910): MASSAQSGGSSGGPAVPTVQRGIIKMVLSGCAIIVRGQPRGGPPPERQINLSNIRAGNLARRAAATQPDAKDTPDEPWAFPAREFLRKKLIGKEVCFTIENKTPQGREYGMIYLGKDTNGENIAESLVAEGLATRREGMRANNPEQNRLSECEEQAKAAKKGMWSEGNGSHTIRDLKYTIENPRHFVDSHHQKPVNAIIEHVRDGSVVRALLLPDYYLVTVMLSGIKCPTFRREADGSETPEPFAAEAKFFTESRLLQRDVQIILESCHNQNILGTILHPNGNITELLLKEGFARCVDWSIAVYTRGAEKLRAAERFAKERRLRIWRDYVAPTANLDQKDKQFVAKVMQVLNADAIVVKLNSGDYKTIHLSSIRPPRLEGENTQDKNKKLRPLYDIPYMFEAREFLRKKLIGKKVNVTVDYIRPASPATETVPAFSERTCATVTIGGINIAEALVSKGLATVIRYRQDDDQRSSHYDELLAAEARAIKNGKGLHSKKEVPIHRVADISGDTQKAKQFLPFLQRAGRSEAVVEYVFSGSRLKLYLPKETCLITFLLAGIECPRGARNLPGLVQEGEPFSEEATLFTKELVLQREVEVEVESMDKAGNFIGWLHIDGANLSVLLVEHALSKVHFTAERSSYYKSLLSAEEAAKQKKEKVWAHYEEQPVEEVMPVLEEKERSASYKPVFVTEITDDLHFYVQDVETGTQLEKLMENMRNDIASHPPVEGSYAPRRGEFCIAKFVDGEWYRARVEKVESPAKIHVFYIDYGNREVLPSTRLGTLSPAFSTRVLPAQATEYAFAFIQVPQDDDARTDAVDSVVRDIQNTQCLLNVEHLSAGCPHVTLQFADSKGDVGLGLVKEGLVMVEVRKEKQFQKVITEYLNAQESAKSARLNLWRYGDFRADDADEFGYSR
# T2: SND1 (Homo sapiens, UniProt Q7KZF4)
# T2 construct: 15 μg of His-SND1 (16-339) was added to the resin; made in house; host or cells: E. coli DH5α
# T2 sequence (Q7KZF4 16-339): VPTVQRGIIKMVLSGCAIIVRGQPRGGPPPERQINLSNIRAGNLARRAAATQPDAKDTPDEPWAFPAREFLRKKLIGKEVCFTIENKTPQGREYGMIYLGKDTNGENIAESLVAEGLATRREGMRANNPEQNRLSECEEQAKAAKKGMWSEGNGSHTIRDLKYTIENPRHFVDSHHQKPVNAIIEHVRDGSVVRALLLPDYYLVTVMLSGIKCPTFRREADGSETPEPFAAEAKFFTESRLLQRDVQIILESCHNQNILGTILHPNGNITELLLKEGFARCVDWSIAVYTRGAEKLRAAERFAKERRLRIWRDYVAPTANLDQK
# How the values were obtained:
# SND1 [1] = target: T1, SND1; assay: Co-immunoprecipitation of full-length Myc-MTDH (WT or mutant) and HA-SND1 in HEK293T cells; assay type: cell-based; settings: HEK293T cell lysates, immunoprecipitation and immunoblot
# Description: (§1) FIGS. 7A-E represents determination of key regions and residues mediating the MTDH-SND1 interaction. (FIG. 7A) Schematics of MTDH fragments and mutants with indicated SND1-binding capability. + indicates binding and − indicates no binding based on results shown below. Two putative nuclear localization signals are residues 432-451 for NLS2 and residues 561-580 for NLS3. In the enlarged view of the minimal binding region 386-407, 9 residues were targeted for mutagenesis in the current study. […] (FIG. 7B) Pulldown of His6-SND1AC by GST-tagged MTDH fragments with indicated boundaries. The bound proteins were examined by SDS-PAGE and visualized by Coomassie blue staining. (FIG. 7C) Pulldown of His6-SND1ΔC by GST-tagged WT or triple mutant MTDH fragments (364-582). For (FIG. 7B) and (FIG. 7C), 1/10 of the His6-SND1ΔC input was shown, and GST alone was used as a negative control. Representative results of 3 independent experiments are shown. (FIG. 7D, FIG. 7E) Lysates from HEK293T cells expressing the indicated ectopic human SND1, AGO2 or MTDH were immunoprecipitated with anti-Myc and immunoblotted with the indicated antibodies.
# (§2) (FIG. 22A) In vitro pull-down of SND1 (16-339) by GST-tagged MTDH (364-582) harboring WT or mutant sequence. The proteins bound to GS4B were examined on SDS-PAGE and visualized by Coomassie blue staining. (FIG. 22B) In vitro pull-down of WT and mutant SND1 (16-339) by GST-tagged MTDH (364-582). The bound proteins were examined as in (FIG. 22A). For both (FIG. 22A) and (FIG. 22B), experiments were repeated three times; representative results are shown. The normalized percentage of binding was averaged from three experiments; mean±SEM was shown below the data. (FIG. 22C) HEK293T cells were transfected with human HA-SND1, WT Myc-MTDH or Myc-MTDH with indicated single point mutation. Lysates were immunoprecipitated with anti-Myc antibody and immunoblotted with the indicated antibodies. (FIG. 22D) HEK293T cells were transfected with human Myc-MTDH, WT HA-SND1 or mutant HA-SND1 with indicated single point mutations or deletions. Lysates were immunoprecipitated with anti-Myc and immunoblotted with the indicated antibodies.
# Immunoprecipitation and western blot For immunoprecipitation (IP) experiments, cultured cells were washed in cold PBS and lysed in lysis buffer (20 mM Tris pH 7.4, 0.15 M NaCl, 1 mM EDTA, 1 mM EGTA, 1% Tx-100, 0.0025 M Na2P2O7, 1 mM α-glycerolphosphate, 1 mM Na3VO4, and 1 mM NaF) with an EDTA-free protease inhibitor mixture (Roche Applied Science) and PMSF. Cell lysates were then incubated on ice for 10 min, centrifuged, and precleared by incubating with protein A/G beads (Santa Cruz Biotechnology) for 1 h at 4° C. For IP bead preparation, 30 μl of protein A/G beads were incubated with 5 μg of antibodies for 2 h at 4° C. IPs were carried out for overnight at 4° C., and beads were centrifuged, washed and subsequently boiled for 5 min in SDS protein loading buffer to elute bound protein. IP lysates were subjected to western blotting with indicated antibodies.
# Immunoprecipitation and western blot: For in vivo immunoprecipitation (IP) experiments, cultured cells were washed in cold PBS and lysed in lysis buffer (20 mM Tris pH 7.4, 0.15 M NaCl, 1 mM EDTA, 1 mM EGTA, 1% Tx-100, 0.0025 M Na2P2O7, 1 mM β-glycerolphosphate, 1 mM Na3VO4, and 1 mM NaF) with an EDTA-free protease inhibitor mixture (Roche Applied Science) and PMSF. Cell lysates were then incubated on ice for 10 min, centrifuged, and precleared by incubating with protein A/G beads (Santa Cruz Biotechnology) for 1 h at 4° C. For IP bead preparation, 30 μl of protein A/G beads were incubated with 5 μg of antibodies for 2 h at 4° C. IPs were carried out for overnight at 4° C., and beads were centrifuged, washed and subsequently boiled for 5 min in SDS protein loading buffer to elute bound protein. IP lysates were subjected to western blotting with indicated antibodies.
# SND1 [2] = target: T2, SND1; assay: GST-mediated pull-down of SND1 by GST-tagged MTDH fragments and mutants; assay type: binding; settings: SND1 (16-339); GST-tagged MTDH (364-582)
# Description: as §1, §2
# GST-Mediated Pull-Down Assay: ˜20 μg of GST-MTDH (different truncation forms and site mutants) was bound to 10 μl of glutathione resin via GST tag. The resin was washed with 200 μl assay buffer (25 mM Tris, PH8.0, 150 mM NaCl, 3 mM DTT) three times to remove the excess unbound protein. 15 μg of His-SND1 (16-339) was added to the resin in a 100 μl volume suspended in the assay buffer with 2 mg/ml of BSA. The mixture was washed with 200 μl assay buffer twice before examined by SDS-PAGE, and visualized by Coomassie blue staining. The experiments were repeated 3 times and the ratio of SND1 associated with GST-MTDH was analyzed by ImageJ.
molecule,measurement,setting,value
"WT MTDH: full-length Myc-tagged wild-type human MTDH (protein, UniProt Q86UE4 1-582, looked up, full-length Myc tag) MAARSWQDELAQQAEEGSARLREMLSVGLGFLRTELGLDLGLEPKRYPGWVILVGTGALGLLLLFLLGYGWAAACAGARKKRRSPPRKREEAAAVPAAAPDDLALLKNLRSEEQKKKNRKKLSEKPKPNGRTVEVAEGEAVRTPQSVTAKQPPEIDKKNEKSKKNKKKSKSDAKAVQNSSRHDGKEVDEGAWETKISHREKRQQRKRDKVLTDSGSLDSTIPGIENTITVTTEQLTTASFPVGSKKNKGDSHLNVQVSNFKSGKGDSTLQVSSGLNENLTVNGGGWNEKSVKLSSQISAGEEKWNSVSPASAGKRKTEPSAWSQDTGDANTNGKDWGRSWSDRSIFSGIGSTAEPVSQSTTSDYQWDVSRNQPYIDDEWSGLNGLSSADPNSDWNAPAEEWGNWVDEERASLLKSQEPIPDDQKVSDDDKEKGEGALPTGKSKKKKKKKKKQGEDNSTAQDTEELEKEIREDLPVNTSKTRPKQEKAFSLKTISTSDPAEVLVKNSQPIKTLPPATSTEPSVILSKSDSDKSSSQVPPILQETDKSKSNTKQNSVPPSQTKSETSWESPKQIKKKKKARRET",interaction of full-length MTDH (WT or mutant) with HA-SND1,SND1 [1],pulled down
"E400R: MTDH single point mutant E400R (protein, listed as Homo sapiens) MAARSWQDELAQQAEEGSARLREMLSVGLGFLRTELGLDLGLEPKRYPGWVILVGTGALGLLLLFLLGYGWAAACAGSRKKRRSPPRKREEAAAVPAAAPDDLALLKNLRSEEQKKKNRKKLSEKPKPNGRTVEVAEGEAVRTPQSVTAKQPPEIDKKNEKSKKNKKKSKSDAKAVQNSSRHDGKEVDEGAWETKISHREKRQQRKRDKVLTDSGSLDSTIPGIENTITVTTEQLTTASFPVGSKKNKGDSHLNVQVSNFKSGKGDSTLQVSSGLNENLTVNGGGWNEKSVKLSSQISAGEEKWNSVSPASAGKRKAEPSAWSQDTGDANTNGKDWGRSWSDRSIFSGIGSTAEPVSQSTTSDYQWDVSRNQPYIDDEWSGLNGLSSADPNSDWNAPAERWGNWVDEERASLLKSQEPIPDDQKVSDDDKEKGEGALPTGKSKKKKKKKKKQGEDNSTAQDTEELEKEIREDLPVNTSKTRPKQEKAFSLKTISTSDPAEVLVKNSQPIKTLPPATSTEPSVILSKSDSDKSSSQVPPILQETDKSKSNTKQNSVPPSQTKSETSWESPKQIKKKKKARRET","SND1-binding of MTDH (364-582) point mutants, in vitro",SND1 [2],barely had any effect
"N395A: MTDH mutant N395A (protein, left off: a dimerising Fc or GST) YQWDVSRNQPYIDDEWSGLNGLSSADPNSDWAAPAEEWGNWVDEERASLLKSQEPIPDDQKVSDDDKEKGEGALPTGKSKKKKKKKKKQGEDNSTAQDTEELEKEIREDLPVNTSKTRPKQEKAFSLKTISTSDPAEVLVKNSQPIKTLPPATSTEPSVILSKSDSDKSSSQVPPILQETDKSKSNTKQNSVPPSQTKSETSWESPKQIKKKKKARRET","SND1-binding of MTDH (364-582) point mutants, in vitro",SND1 [2],barely had any effect
"N403A: MTDH mutant N403A (protein, left off: a dimerising Fc or GST) YQWDVSRNQPYIDDEWSGLNGLSSADPNSDWNAPAEEWGAWVDEERASLLKSQEPIPDDQKVSDDDKEKGEGALPTGKSKKKKKKKKKQGEDNSTAQDTEELEKEIREDLPVNTSKTRPKQEKAFSLKTISTSDPAEVLVKNSQPIKTLPPATSTEPSVILSKSDSDKSSSQVPPILQETDKSKSNTKQNSVPPSQTKSETSWESPKQIKKKKKARRET","SND1-binding of MTDH (364-582) point mutants, in vitro",SND1 [2],barely had any effect
"E400A: MTDH mutant E400A (protein, left off: a dimerising Fc or GST) YQWDVSRNQPYIDDEWSGLNGLSSADPNSDWNAPAEAWGNWVDEERASLLKSQEPIPDDQKVSDDDKEKGEGALPTGKSKKKKKKKKKQGEDNSTAQDTEELEKEIREDLPVNTSKTRPKQEKAFSLKTISTSDPAEVLVKNSQPIKTLPPATSTEPSVILSKSDSDKSSSQVPPILQETDKSKSNTKQNSVPPSQTKSETSWESPKQIKKKKKARRET","SND1-binding of MTDH (364-582) point mutants, in vitro",SND1 [2],barely had any effect
